The record followed here is patent US20130129739A1 (Bayer, published 2013).

“And” between values parts separate entries of the source, which are not always exact repeats. Equal values may be shown once.

Assay [1] deals with T1, human prolactin receptor (PRLR) on cells (human, UniProt P16471 25-622).
T1 construct: whole, on cells; also called human PRLR; hPRLR
T1 sequence (looked up): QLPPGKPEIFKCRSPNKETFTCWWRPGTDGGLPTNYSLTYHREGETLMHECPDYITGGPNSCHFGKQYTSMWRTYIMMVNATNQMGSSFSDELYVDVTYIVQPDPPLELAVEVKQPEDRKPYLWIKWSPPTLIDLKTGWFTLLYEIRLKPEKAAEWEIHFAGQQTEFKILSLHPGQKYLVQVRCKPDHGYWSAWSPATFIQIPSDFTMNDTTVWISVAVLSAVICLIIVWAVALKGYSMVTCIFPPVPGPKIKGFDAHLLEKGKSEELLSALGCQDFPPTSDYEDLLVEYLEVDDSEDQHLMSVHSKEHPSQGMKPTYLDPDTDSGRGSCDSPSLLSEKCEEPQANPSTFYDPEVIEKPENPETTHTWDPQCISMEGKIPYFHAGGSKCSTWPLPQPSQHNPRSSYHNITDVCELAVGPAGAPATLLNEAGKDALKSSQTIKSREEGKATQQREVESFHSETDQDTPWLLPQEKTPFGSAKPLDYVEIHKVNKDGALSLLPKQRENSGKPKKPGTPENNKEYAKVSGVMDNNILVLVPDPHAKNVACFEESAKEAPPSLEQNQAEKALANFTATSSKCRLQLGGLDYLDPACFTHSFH
In words: FACS on human breast cancer cell line T47D, IgG1.

The target in assay [2] is T2, extracellular domain of human PRLR (monomeric, soluble) (human, UniProt P16471 25-234).
T2 construct: also called ECD-PRLR; ECD of PRLR
T2 sequence: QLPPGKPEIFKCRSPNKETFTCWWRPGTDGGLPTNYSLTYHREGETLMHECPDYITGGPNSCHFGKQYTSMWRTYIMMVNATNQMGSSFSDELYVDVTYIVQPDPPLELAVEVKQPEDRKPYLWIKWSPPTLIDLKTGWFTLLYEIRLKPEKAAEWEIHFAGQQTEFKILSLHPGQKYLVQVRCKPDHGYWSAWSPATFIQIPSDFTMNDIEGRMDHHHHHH
In words: SPR (Biacore), IgG1 directly immobilized, monomeric human PRLR ECD from HEK293 as analyte.

Assay [3] addresses T3, rat prolactin receptor (PRLR) on Nb2 lymphoma cells (rat, UniProt P05710 20-610).
T3 construct: whole, on cells; also called rat PRLR
T3 sequence (looked up): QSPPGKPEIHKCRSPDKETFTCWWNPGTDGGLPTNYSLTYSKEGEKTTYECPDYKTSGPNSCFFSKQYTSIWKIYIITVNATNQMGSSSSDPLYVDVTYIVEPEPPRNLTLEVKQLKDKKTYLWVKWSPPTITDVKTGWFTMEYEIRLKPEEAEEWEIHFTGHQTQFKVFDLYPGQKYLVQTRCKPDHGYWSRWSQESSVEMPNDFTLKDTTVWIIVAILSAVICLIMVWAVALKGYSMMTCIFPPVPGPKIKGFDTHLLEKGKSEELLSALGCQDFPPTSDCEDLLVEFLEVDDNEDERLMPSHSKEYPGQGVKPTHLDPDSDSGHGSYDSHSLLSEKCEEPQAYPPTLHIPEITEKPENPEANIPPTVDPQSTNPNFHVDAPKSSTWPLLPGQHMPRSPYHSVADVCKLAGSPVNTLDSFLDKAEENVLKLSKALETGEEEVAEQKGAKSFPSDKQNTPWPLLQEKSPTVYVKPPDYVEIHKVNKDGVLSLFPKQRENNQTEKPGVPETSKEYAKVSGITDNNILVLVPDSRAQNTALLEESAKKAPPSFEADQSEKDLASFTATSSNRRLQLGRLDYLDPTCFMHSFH
The experiment in a line: FACS on rat lymphoma cell line Nb2, IgG1.

Assay [4] concerns the target T4, murine prolactin receptor (PRLR) on cells (mouse, UniProt Q08501 20-608).
T4 sequence (looked up): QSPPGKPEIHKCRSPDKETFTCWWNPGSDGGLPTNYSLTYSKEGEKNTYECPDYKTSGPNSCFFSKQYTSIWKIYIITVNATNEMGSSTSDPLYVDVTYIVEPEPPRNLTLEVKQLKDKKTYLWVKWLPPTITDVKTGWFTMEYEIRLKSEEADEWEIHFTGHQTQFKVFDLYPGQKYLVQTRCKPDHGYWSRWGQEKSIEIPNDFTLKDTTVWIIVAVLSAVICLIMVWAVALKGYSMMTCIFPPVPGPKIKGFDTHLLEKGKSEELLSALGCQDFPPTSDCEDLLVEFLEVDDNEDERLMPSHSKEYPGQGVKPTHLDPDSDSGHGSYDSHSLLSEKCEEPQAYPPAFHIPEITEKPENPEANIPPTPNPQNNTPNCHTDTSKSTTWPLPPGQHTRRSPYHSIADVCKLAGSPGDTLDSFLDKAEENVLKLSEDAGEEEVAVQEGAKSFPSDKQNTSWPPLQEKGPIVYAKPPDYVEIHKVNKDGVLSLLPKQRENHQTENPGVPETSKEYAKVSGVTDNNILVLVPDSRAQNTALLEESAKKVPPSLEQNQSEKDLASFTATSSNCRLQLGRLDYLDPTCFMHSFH
In words: cell-based or functional assay.

In assay [5] the target is T1, human prolactin receptor (PRLR) on cells. In words: cell-based or functional assay.
Assay [6] addresses T4, murine prolactin receptor (PRLR) on …. The experiment in a line: flow cytometry on HEK293 cells stably expressing murine PRLR, PE anti-human IgG, fixed 0.37 µg/ml IgG. On the procedure: In order to determine the binding characteristics of the anti-PRLR antibodies on mouse and human PRLR expressed on cells, binding was tested by flow cytometry on HEK293 cells stably expressing the human and murine PRLR, respectively. The cells as well as the parental HEK293 cell line without PRLR were harvested, centrifuged and resuspended at approximately 5×10⁶ cells/ml in 1×PBS containing 2% FBS and 0.1% sodium azide (FACS buffer). The antibodies 005-C04, 001-E06 and HE06.642 were diluted to 2-fold final concentration in FACS buffer and added to appropriate sample wells (50 μl/well). For secondary antibody and autofluorescence controls, 50 μl FACS buffer was added to appropriate wells. 50 μl of cell suspension was added to each sample well. Samples were incubated at 4° C. for one hour, washed twice with cold FACS buffer and resuspended in FACS buffer containing PE-conjugated goat anti-human IgG at a 1:100 dilution. Following a 30 min incubation at 4° C., cells were washed twice with cold FACS buffer, resuspended in FACS buffer containing […] propidium iodide (Invitrogen, San Diego, Calif.) and analyzed by flow cytometry. […] This observation is consistent with the finding reported in example 9 about the missing efficacy of HE06.642 in the murine PRLR-dependent luciferase reporter gene assay. […]

Assay [7] concerns the target T3, rat prolactin receptor (PRLR) on Nb2 …. In words: cell-based or functional assay.

B1: HE06.642 (antibody, V domains shown)
VH: EVQLVESGGGLVQPGGSLRLSCAVSGFTFSSYGMSWVRQAPGKGLEWVATVSSGGTYTYYPDSVKGRFTISRDNSKNTLYLQMNSLRAEDTAVYYCARHRGNYYATYYYAMDYWGQGTLVTVSS
VL: DIVLTQSPDSLAVSLGERATINCKASKSVSTSGYTYMHWYQQKPGQPPKLLIYLASNRESGVPDRFSGSGSGTDFTLTISPVQAEDVATYYCQHSGELPPSFGQGTKLEIKR
notes: Human Engineered Novartis antibody (WO2008/022295); tested as human IgG1
As for B1, a half-maximal response in assay [1] (EC50) required 1.8 nM. For the same molecule, in assay [2], the Kd came out at 0.3 nM and the koff turned out to be 0.00032 s⁻¹. In assay [3], this molecule yielded an EC50 of 0.9 nM. In addition, the “IC50, inhibition of prolactin-activated Ba/F cell proliferation (murine PRLR)” value in assay [4] was > 30 mg/ml and > 200 nM. Besides, in assay [5], the “IC50, inhibition of prolactin-activated Ba/F cell proliferation (human PRLR)” value was 0.34 µg/ml and 2.2 nM; the “IC50, prolactin-activated luciferase reporter gene activity, HEK293 cells with hPRLR” value was 0.63 mg/ml and 4.2 nM. Moreover, the binding result in assay [6] is recorded as “no binding (tested: 0.37 µg/ml)”.

B2: XHA06.642 (antibody, V domains shown)
VH: EVQLVESGGDLVKPGGSLKLSCAVSGFTFSSYGMSWVRQTPDKRLEWVATVSSGGTYTYYPDSVKGRFTISRDNAKNTLYLQMSSLKSEDSAMYYCARHRGNYYATYYYAMDYWGQGTSVTVSS
VL: DIVLTQSPASLAVSLGQGATISCRASKSVSTSGYTYMHWYQQKPGQPPKLLIYLASNLESGVPARFSGSGSGTDFTLNIHPVEEEDAATYYCQHSGELPPSFGGGTKLEIKR
notes: Novartis antibody (WO2008/022295)
Regarding B2, the EC50 worked out at 1.5 nM in assay [1] and 1.1 nM in assay [3]. Also, the affinity in assay [2], expressed as Kd, was 1.2 nM. Moreover, the koff in assay [2] amounted to 0.00013 s⁻¹. Moreover, in assay [4], the “IC50, prolactin-activated luciferase reporter gene activity, HEK293 cells with mPRLR” value is > 50 mg/ml and > 333 nM. Moreover, the “IC50, inhibition of prolactin-induced rat lymphoma cell proliferation (NB2 cells)” value in assay [7] is 10 µg/ml and 67 nM.

B3: 006-H08 (antibody, V domains shown)
VH: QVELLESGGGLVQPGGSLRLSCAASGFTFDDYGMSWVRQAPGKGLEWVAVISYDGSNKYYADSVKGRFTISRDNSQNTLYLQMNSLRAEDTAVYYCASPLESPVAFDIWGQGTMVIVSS
VL: DIVLTQPPSASGTPGQRVTISCSGSNSNIGSNPVNWYQQLPGTAPKLLIYDNNKRPSGVPDRFSGSKSGTSASLAISGLRSEDEADYYCQSYDTGLSGWVFGGGTKLTVLG
notes: Tested as human IgG1; also called IgG1 006-H08
In assay [1], B3 had an EC50 of 1.3 nM. Further, in assay [2], the Kd was found to be 0.7 nM and the koff was 0.00024 s⁻¹. Moreover, the binding result in assay [3] is “no binding”. In assay [5], the “IC50, inhibition of prolactin-activated Ba/F cell proliferation (human PRLR)” value was 0.15 µg/ml and 1 nM; the “IC50, prolactin-activated luciferase reporter gene activity, HEK293 cells with hPRLR” value was 0.83 mg/ml and 5.5 nM.
